Test results reported in patent US20080207488A1, “Method for Detecting Peptides Comprising a Cross-B Structure” (priority 2005, published 2008).

Tests used:
tPA [1] = target: T1, tPA (Homo sapiens, UniProt P00750); experiment: Plasminogen-activation assay (tPA-mediated Plg to Pls, S-2251); format: biochemical; conditions: 100 μg ml^−1 protein
T1 construct: purchased Boehringer-Ingelheim (Actilyse, Alteplase)
Method: Plasmin (Pls) activity was assayed as described^7. Peptides and proteins that were tested for their stimulatory ability were regularly used at 100 μg ml^−1. […] Chromogenic substrate S-2251 (Chromogenix, Instrumentation Laboratory SpA, Milano, Italy) was used to measure Pls activity. Conversion of zymogen factor XII (#233490, Calbiochem, EMD Biosciences, Inc., San Diego, Calif.) to proteolytically active factor XII (factor XIIa) was assayed by measurement of the conversion of chromogenic substrate Chromozym-PK (Roche Diagnostics, Almere, The Netherlands) by kallikrein. Chromozym-PK was used at a concentration of 0.3 mM. Factor XII, human plasma prekallikrein (#529583, Calbiochem) and human plasma cofactor high-molecular weight kininogen (#422686, Calbiochem) were used at concentrations of 1 μg ml^−1. […] Assays were performed using microtiter plates (Costar, Cambridge, Mass., USA). Peptides and proteins were tested for their ability to activate factor XII. […] The conversion of Chromozym-PK was recorded kinetically at 37° C. for at least 60 minutes. […] With S-2222, activation of factor XII in plasma was measured, using 60% v/v plasma, diluted with substrate and H2O with or without potential cofactor. Furthermore, auto-activation of factor XII was measured by incubating 53 μg ml^−1 purified factor XII in 50 mM Tris-HCl buffer pH 7.5 with 1 mM EDTA and 0.001% v/v Triton-X100, with S-2222 and H2O with or without potential cofactor.
Formulated protein therapeutics were obtained from the local hospital pharmacy and were used as supplied by the manufacturers. […] Enhancement in fluorescence of ThT and Congo red was measured with all formulated protein therapeutics. […]
To prepare structurally altered ovalbumin (OVA) with amyloid cross-β structure conformation, purified OVA (Sigma, A-7641, lot 071k7094) was heated to 85° C. […] Native OVA (nOVA) and heat-denatured OVA (dOVA) were tested in the ThT fluorescence assay and in the Plg-activation assay. In the fluorescence assay and in the Plg-activation assay, 25 and 100 μg ml^−1 nOVA and dOVA were tested, respectively. […]

[2] = ThT fluorescence of β2GPI with or without CL vesicles or DXS500k; format: physicochemical; conditions: 25 μg ml^−1 β2GPI, 100 μM CL vesicles or 250 μg ml^−1 DXS
Method: ThT fluorescence of β2GPI was measured as follows. […] CL vesicles were prepared according to an established procedure. Briefly, CL was dried under a stream of nitrogen. The lipids were resuspended to a concentration of 10 mg ml^−1 in 25 mM Tris-HCl, pH 7.3, 150 mM NaCl by vigorous agitation, using a vortex. In the ThT fluorescence assay, fluorescence of β2GPI in buffer, of CL or DXS500k in buffer, of buffer and ThT alone, and of β2GPI-CL adducts and β2GPI-DXS500k adducts, with or without ThT, was recorded as described above (section ThT fluorescence). In addition, TEM images were recorded with CL, β2GPI from human plasma, with or without CL, and with recombinant β2GPI, as described^1.

[3] = ThT fluorescence of CpG-ODN-protein mixtures; format: physicochemical; conditions: 1 mg ml^−1 protein exposed to 21.4 μg ml^−1 CPG-ODN (FIG. 4F)
Method: (§1) Fluorescence of ThT-protein/peptide adducts was measured as follows. […] Fluorescence was measured at 485 nm upon excitation at 435 nm. Background signals from buffer, buffer with ThT and protein/peptide solution without ThT were subtracted from corresponding measurements with protein solution incubated with ThT. […] Fluorescence was measured in triplicate on a Hitachi F-4500 fluorescence spectrophotometer (Ltd., Tokyo, Japan).
Enhancement of ThT fluorescence was measured similarly as described above. […]

[4] = system: anti-β2GPI auto-antibodies; experiment: Interference with binding of anti-β2GPI autoantibodies to immobilized β2GPI; parameters: species or system human; conditions: antibodies from Anti-phospholipid syndrome patients
Method: When plasma derived β2GPI is coated onto hydrophilic ELISA plates, anti-β2GPI auto-antibodies isolated from plasma of antiphospholipid syndrome auto-immune patients can bind^14. To study the influence of co-incubations of the coated β2GPI with the antibodies together with plasma β2GPI or recombinant β2GPI, concentration series of β2GPI were added to the patient antibodies. Subsequently, binding of the antibodies to coated β2GPI was determined.

[5] = ThT fluorescence of LPS-protein mixtures; format: physicochemical; conditions: 1 mg ml^−1 protein exposed to 600 μg ml^−1 LPS (FIG. 4C)
Method: as §1
Subsequently, the ability to enhance ThT fluorescence was determined with 40× diluted solution, as described above. […]

tPA [6] = target: T1, tPA; experiment: ELISA, binding of β2GPI to immobilized tPA
Method: (§2) Binding of purified human factor XII from plasma (Calbiochem) or of purified recombinant human tPA to β2GPI purified from human plasma, or to recombinant human β2GPI was tested in an ELISA. Ten μg of factor XII or tPA in PBS was coated onto wells of a Costar 2595 ELISA plate (Cambridge, USA) and incubated with concentration series of the two β2GPI preparations. Binding of β2GPI was assessed with monoclonal antibody 2B2^13.

factor XII = target: T2, factor XII (Homo sapiens, UniProt P00748); experiment: ELISA, binding of β2GPI to immobilized factor XII
T2 construct: purchased Calbiochem, EMD Biosciences #233490
T2 sequence (P00748 20-615): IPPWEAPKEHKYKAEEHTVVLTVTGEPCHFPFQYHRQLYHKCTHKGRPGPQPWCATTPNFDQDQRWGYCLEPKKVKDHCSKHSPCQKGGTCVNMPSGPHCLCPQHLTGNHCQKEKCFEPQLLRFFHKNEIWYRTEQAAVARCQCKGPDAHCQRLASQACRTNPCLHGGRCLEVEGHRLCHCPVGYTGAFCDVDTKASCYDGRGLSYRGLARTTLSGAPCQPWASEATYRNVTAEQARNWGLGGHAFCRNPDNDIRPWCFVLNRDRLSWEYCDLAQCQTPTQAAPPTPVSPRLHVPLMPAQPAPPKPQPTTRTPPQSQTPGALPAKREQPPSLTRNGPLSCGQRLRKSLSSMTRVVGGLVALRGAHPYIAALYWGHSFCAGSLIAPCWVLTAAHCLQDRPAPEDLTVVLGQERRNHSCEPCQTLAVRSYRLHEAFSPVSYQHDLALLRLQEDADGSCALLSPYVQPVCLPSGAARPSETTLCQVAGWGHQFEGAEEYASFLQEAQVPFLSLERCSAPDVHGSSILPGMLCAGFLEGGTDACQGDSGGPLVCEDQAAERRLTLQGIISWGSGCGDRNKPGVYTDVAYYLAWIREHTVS
Method: as §2

T1 sequence (P00750 36-562): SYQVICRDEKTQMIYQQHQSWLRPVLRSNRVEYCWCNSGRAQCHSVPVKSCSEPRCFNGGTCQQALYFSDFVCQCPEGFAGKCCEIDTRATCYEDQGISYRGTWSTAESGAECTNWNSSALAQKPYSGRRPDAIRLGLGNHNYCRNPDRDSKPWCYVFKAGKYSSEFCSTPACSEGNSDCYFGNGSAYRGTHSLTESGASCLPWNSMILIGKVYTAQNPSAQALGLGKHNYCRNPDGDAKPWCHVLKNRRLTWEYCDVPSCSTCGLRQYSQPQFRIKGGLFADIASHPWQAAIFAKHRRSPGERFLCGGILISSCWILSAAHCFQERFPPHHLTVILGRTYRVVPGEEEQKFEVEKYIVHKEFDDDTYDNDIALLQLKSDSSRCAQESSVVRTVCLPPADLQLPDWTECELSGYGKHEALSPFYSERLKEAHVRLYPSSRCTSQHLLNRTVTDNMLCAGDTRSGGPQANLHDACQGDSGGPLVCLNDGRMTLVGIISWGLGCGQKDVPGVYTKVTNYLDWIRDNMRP

B1: plasma β2GPI: β2-glycoprotein I purified from fresh human plasma (protein)
chain: GRTCPKPDDLPFSTVVPLKTFYEPGEEITYSCKPGYVSRGGMRKFICPLTGLWPINTLKCTPRVCPFAGILENGAVRYTTFEYPNTISFSCNTGFYLNGADSAKCTEEGKWSPELPVCAPIICPPPSIPTFATLRVYKPSAGNNSLYRDTAVFECLPQHAMFGNDTITCTTHGNWTKLPECREVKCPFPSRPDNGFVNYPAKPTLYYKDKATFGCHDGYSLDGPEEIECTKLGNWSAMPSCKASCKVPVKKATVVYQGERVKIQEKFKNGMLHGDKVSFFCKNKEKKCSYTEDAQCIDGTIEVPKCFKEHSSLAFWKTDASDVKPC
tPA [1]
  stimulation of tPA-mediated conversion of Plg to Pls: not
[2]
  ThT fluorescence after exposure to CL vesicles or DXS: increased fluorescence of ThT
[3]
  increased ThT fluorescence: ~2 factor
[4]
  inhibition of binding of anti-β2GPI auto-antibodies to immobilized β2GPI: minor effect on antibody binding
[5]
  ThT fluorescence enhancement: ~2 times
tPA [6]
  binding to tPA: not bind
Factor XII
  binding to factor XII: not bind
